Source: patent US8697648B2, “Protein agent for diabetes treatment and β cell imaging” (Georgia State University Research Foundation, Inc., priority 2009, dated 2014)

Key:
[1] = Protein serum stability test in mice serum (SDS-PAGE); type: in vitro ADME; details: mice serum 1:1, 37° C., 24 hrs
Description: FIG. 5 is a digital image of a gel analysis of a protein serum stability test. A 16% SDS-PAGE without DTT was used to analysis the protein level after incubation with mice serum for certain time. Lane 1: mice serum only; Lane 2: fusion protein only; Lanes 3-5: fusion protein incubated with 50% serum for 1 hr, 3 hrs, and 24 hrs respectively; Lane 6: PEGylated protein only; Lanes 7-9: PEGylated protein incubated with 50% serum for 1 hr, 3 hrs, and 24 hrs respectively.
The fusion protein and PEGylated protein were incubated with mice serum at a ratio 1:1, in 37° C. for 1 hr, 3 hrs and 24 hrs. Samples were then analyzed by 16% SDS-PAGE.
The fusion protein and PEGylated protein were incubated with mice serum at a 1:1 ratio at 37° C. for 1 hr, 3 hrs, and overnight. SDS-PAGE was then used to analyze the protein stability.

[2] = Stability in 75% human serum (SDS-PAGE); type: in vitro ADME; details: 48 hour
Description: FIG. 7 is a digital image of an SDS-PAGE analysis of serum stability of the fusion protein Cal.GLP. […] Cal.GLP was incubated with 75% human serum (S+CA) in […] at 37° C. for 1 hour (lane 3), 3 hours (lane 4), and 24 hours (lane 5). The mixture was separated by 16% SDS-PAGE and visualized by coomassie blue staining. Lane 1 is 75% human serum (S) and lane 2 is Cal.GLP only (CA). Lane M is molecular weight markers.
(§1) The fusion protein Cal.GLP was incubated with 75% human serum for a time course (up to 48 hrs). The protein was then analyzed by SDS-PAGE and stained by coomassie blue.

[3] = NMR and fluorescence spectrum analyses in different pH conditions; type: physicochemical; details: pH 3, 5, 7, 9, 10
Description: FIG. 8 is a graph showing the fluorescence spectrum of the protein Cal.GLP (50 μM) at various pH values. The spectrum at each pH was compared to that of completely denatured Cal.GLP in 8M Urea.
as §1

Stability to boiling = type: physicochemical; details: boiling for 10 minutes
Description: This property led to a simplified one ion-exchange column chromatography procedure of protein purification. The bacterial lysate was boiled for 10 minutes. Most bacterial proteins were precipitated due to denaturing by boiling. The fusion protein stayed in supernatant. The protein was then further purified by an ion-exchange column. Approximately 30-50 mg purified fusion protein per liter of bacterial culture were obtained.

RINm5F cells = assay: Immunostaining binding analysis, RINm5F cells (GLP-1R expressed); type: cell-based, rat; details: Cal.GLP 10 μM, calbindin D9k 50 μM, 37° C., 30 mins
Description: (§2) FIG. 10 is a series of digital images showing immunofluorescence staining of CHO or RINm5F cells that were treated by calbindin (50 μM) and Cal.GLP (10 μM). The cells were extensively washed after 30 min treatments under 37° C. in microscopic chamber slides and subsequently fixed. The cells were stained with the calbindin-specific antibody and visualized under confocal microscopy. The light shading represents antibody staining.
(§3) To examine whether the developed protein indeed interacted with GLP-1R, the binding of the fusion protein with two cell lines, RINm5F and CHO cells was examined. It is well known that GLP-1R is expressed in RINm5F but not in CHO cells. Both RINm5F and CHO cells were incubated with fusion protein Cal.GLP (10 μM) or calbindin D9k (50 μM) at 37° C. for 30 mins. After extensive washing, the cells were fixed and subjected to immunostaining analyses using a rabbit polyclonal antibody against parental protein calbindin D9k. […] Similar binding analyses were carried out with RINm5F cells and a […] (αTC1).

CHO cells = assay: Immunostaining binding analysis, CHO cells (no GLP-1R); type: cell-based; details: Cal.GLP 10 μM, calbindin D9k 50 μM, 37° C., 30 mins
Description: as §2, §3

αTC1 cells = assay: Immunostaining binding analysis, αTC1 cells; type: cell-based
Description: as §3

[4] = test system: Diabetic mice (BKS.Cg-Lepr^db/db); assay: Blood glucose lowering in fed diabetic mice (Example 15); type: in vivo
Description: The animals were re-feed for 25 minutes 5 hours after drug administration and 35 minutes before the last time point of blood sample collection. The A Blood Glucose (mg/dl) was determined by calculating the difference between the measured blood glucose levels at any given time point and the initial blood glucose levels. The initial blood glucose levels were measured after feeding for 20 min and before the drug administration (time zero). The error bars represent standard deviations of measurements of eight mice.
The developed protein agent was tested to determine whether it had the in vivo capability of lowering blood glucose in diabetic subjects. Diabetic mice (BKS.Cg-Lepr^db/db, The Jackson Laboratory) were used as test subjects. A group of six animals first fasted for 6 hours. After fasting, the animals were fed for 30 minutes. The protein agent was administered after feeding by intraperitoneal injection at a dose of 25 nmole/kg. The animals were fed again for 30 mins, 5 hrs after agent administration. Blood samples were taken at different time points after administration of the agent. Glucose concentration in the blood samples was measured using a commercially available kit.

diabetic mice [5] = assay: Blood glucose and glucose-dependent insulin secretion after co-administration with glucose (Example 16); type: in vivo; details: 25 nmole/kg agent with 15 mmole/kg glucose i.p.
Description: FIG. 12 is a pair of graphs showing the changes in Δ blood glucose (Upper panel) and Δ insulin (bottom panel) in a group of 8 diabetic mice at different time points after injection of 15 mmole/kg of glucose with 25 nmole/kg of different agents.
The effects of the developed agent on blood glucose lowering and stimulating of the glucose-dependent insulin secretion in diabetic mice were also examined. The animals first fasted for 6 hours. The protein agent (25 nmole/kg) and glucose (15 mmole/kg) were co-administrated via intraperitoneal injection with a group of eight diabetic mice. The blood glucose and insulin levels were measured at different time points. As controls, the same dose of glucose was administrated alone and co-administrated with the parental protein calbindin in separate groups of diabetic mice.

diabetic mice [6] = assay: Four week daily treatment, blood glucose and body weight (Example 19); type: in vivo; details: 25 nmole/kg i.p. daily for 4 weeks
Description: (§4) Agents (indicated in the figures 25 nmole/kg) were administrated by i.p. at daily at the same time 2:00 pm for 4 weeks. The animals were returned to the ages. Blood samples (about 20 ml) were draw daily at 5:00 pm for 4 weeks. Glucose in blood samples was measured. Blood glucose levels were plotted against day. Animal body weight was weighed daily before drawing blood. Average body weight of each group of six mice was plotted against days.
as §4, with “The effects of the developed agent and PEGylated agents on blood glucose lowering in diabetic mice were examined in a four week treatment course. Agents” for “Agents”, “figures at” for “figures”, “i.p.” for “i.p. at”, “(−20 μl)” for “(about 20 ml)”

CD-1 mice = assay: Toxicity in healthy CD-1 mice; type: in vivo; details: one or two doses of 100 μl (6 mM), 14 days
Description: One group of mice (7 mice per group) were injected with one dose of 100 μl of the agent (6 mM) and another group of animals were injected with two doses of the agent (100 μl of agent (6 mM)) with 8 hours time interval between the two injections. The animals were returned to their cages for 14 days. Among 14 tested mice, no mouse died. All animals behaved normally (no change in eating habits. No abnormal weight gain or loss. No abnormal appearance on fur).

B1: Cal.GLP: GLP-1 grafted into human calbindin D9k by replacing a C-terminal helix; SEQ ID NO: 14 (protein)
chain: MSTKKSPEELKRIFEKYAAKEGDPDQLSKDELKLLIQAEFPSLLKGPNTLDDLFQELDKNGHAEGTFTSDVSSYLEGQAAKEFIAWLVKGRG
modifications: Fusion protein Cal.GLP
With B1 the “degradation in mice serum” value [1] was “no degradation”, the “integrity after incubation with human serum” value [2] was “remained intact” and the “folding in different pH conditions” value [3] was “remained folded in wide ranges of pH conditions”. For the same molecule, the “integrity and folding after boiling” value (Stability to boiling) was “remained intact and folded”, the “binding to RINm5F cells” value (RINm5F cells) was “bound to RINm5F cells” and the “binding to CHO cells” value (CHO cells) was “not CHO cells”. For the same molecule, the “binding to αTC1 cells” value (αTC1 cells) was “not to αTC1 cells”, the “blood glucose decrease and effective time compared to exendin-4” value ([4]; 25 nmole/kg i.p.) was “bigger blood glucose decrease and significantly longer effective time” and the “drop of blood glucose levels” value ([4]; 25 nmole/kg i.p., 4 hour time course) was “about 215 mg/dl”. The “blood glucose levels after re-feed” value ([4]; 6 hours post administration, one hour after re-feed) was “minor increase in blood glucose levels”, the “blood glucose lowering post glucose and drug administration” value (diabetic mice [5]) was “dramatic blood glucose lowering” and the “duration of increase in insulin and decrease in glucose” value (diabetic mice [5]) was ~2 h. The “glucose lowering and duration compared to exendin-4” value (diabetic mice [5]) was “larger glucose lowering in longer duration”, the body weight change (diabetic mice [6]) was “did not result significant weight gain or lose” and the “lowering and stabilizing the blood glucose” value (diabetic mice [6]) was “stronger effects in lowering and stabilizing the blood glucose”. The acute toxicity (CD-1 mice) was “did not have acute toxicity” and the mortality (CD-1 mice; 14 mice) was “no mouse died”.
